Results from patent publication US20060189529A1 (AMBRX, published 2006).
Values belong to the molecule of their own block, whether it stands above or below them.

Legend:
[1] = target: human growth hormone receptor on IM-9 cells (human) (UniProt P10912); experiment: cell-based or functional assay
[2] = target: T1, full length rat GHR (L43R) on BAF3 cells (clone 2E2-2B12-F4) (rat) (UniProt P16310); experiment: cell-based or functional assay
T1 sequence (looked up): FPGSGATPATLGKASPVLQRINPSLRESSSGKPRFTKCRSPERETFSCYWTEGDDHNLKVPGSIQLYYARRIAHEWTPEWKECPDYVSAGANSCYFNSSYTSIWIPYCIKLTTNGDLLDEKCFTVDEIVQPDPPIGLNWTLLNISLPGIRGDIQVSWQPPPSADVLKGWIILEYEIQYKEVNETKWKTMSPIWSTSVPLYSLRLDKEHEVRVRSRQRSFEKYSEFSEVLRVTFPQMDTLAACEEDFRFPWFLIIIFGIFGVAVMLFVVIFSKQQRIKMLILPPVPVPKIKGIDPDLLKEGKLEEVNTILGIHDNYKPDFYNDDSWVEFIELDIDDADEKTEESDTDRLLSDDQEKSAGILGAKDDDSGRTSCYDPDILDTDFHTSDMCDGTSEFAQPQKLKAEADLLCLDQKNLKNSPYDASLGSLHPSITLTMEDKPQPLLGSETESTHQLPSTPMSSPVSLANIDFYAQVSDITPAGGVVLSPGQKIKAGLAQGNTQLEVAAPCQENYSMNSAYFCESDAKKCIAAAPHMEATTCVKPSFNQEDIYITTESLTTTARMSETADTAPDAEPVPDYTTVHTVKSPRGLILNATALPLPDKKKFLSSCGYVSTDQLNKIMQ

[3] = target: T2, rat GHR ECD (L43R), soluble, C-terminal 6His (rat, UniProt P16310 47-256); experiment: Biacore SPR; rat GHR ECD (L43R) on CM5 chip, GH injected; bivalent analyte model
T2 construct: also called soluble GHR ECD; rat GHR (L43R) extra cellular domain; not shown: C-terminal 6His tag of pET20b
T2 sequence (looked up): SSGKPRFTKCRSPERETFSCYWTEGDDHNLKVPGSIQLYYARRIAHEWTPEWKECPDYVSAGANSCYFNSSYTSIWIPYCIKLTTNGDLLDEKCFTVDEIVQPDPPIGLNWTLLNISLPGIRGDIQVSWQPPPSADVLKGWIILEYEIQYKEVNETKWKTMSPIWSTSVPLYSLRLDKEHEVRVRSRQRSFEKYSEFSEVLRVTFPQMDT

[4] = target: T3, human growth hormone receptor on IM-9 cells (human, UniProt P10912 19-638); experiment: cell-based or functional assay
T3 sequence (looked up): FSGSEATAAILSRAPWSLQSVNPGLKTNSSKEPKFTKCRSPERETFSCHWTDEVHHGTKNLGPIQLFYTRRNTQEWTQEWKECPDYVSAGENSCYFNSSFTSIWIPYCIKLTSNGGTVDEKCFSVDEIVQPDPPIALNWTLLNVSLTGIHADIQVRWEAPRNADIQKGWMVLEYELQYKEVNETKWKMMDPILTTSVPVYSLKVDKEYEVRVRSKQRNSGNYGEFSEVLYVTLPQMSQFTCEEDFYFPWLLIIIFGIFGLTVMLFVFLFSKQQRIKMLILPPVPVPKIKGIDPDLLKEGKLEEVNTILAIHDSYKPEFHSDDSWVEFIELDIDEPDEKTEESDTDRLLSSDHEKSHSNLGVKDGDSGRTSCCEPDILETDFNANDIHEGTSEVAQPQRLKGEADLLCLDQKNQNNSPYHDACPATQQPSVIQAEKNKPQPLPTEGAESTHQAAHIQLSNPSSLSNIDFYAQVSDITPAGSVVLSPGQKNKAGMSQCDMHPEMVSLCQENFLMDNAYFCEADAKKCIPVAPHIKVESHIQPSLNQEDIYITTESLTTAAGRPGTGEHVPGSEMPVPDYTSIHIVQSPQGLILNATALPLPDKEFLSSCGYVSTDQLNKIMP

Molecule: hGH G131pAF-30KPEG (from UniProt P01241 27-217) (ligand)
pSTAT5 EC50 (IM-9) (nM as headed; WHO hGH expressed as unity) [1]: 23.8
Proliferation EC50 (BrdU, rat GHR (L43R) BAF3 cells) (nM as headed; WHO hGH expressed as unity) [2]: 4.6

Molecule: hGH K145pAF-30KPEG (from UniProt P01241 27-217) (ligand)
pSTAT5 EC50 (IM-9) (nM as headed; WHO hGH expressed as unity) [1]: 20.6
Proliferation EC50 (BrdU, rat GHR (L43R) BAF3 cells) (nM as headed; WHO hGH expressed as unity) [2]: 5.3

Molecule: hGH R134pAF-20KPEG (from UniProt P01241 27-217) (ligand)
pSTAT5 EC50 (IM-9) (nM as headed; WHO hGH expressed as unity) [1]: 5.3

Molecule: hGH Y143pAF-30KPEG (from UniProt P01241 27-217) (ligand)
pSTAT5 EC50 (IM-9) (nM as headed; WHO hGH expressed as unity) [1]: 12.3
Proliferation EC50 (BrdU, rat GHR (L43R) BAF3 cells) (nM as headed; WHO hGH expressed as unity) [2]: 6.6

Further lines, results first:

pSTAT5 EC50 (IM-9) (nM as headed; WHO hGH expressed as unity) [1]: 53.3
Proliferation EC50 (BrdU, rat GHR (L43R) BAF3 cells) (nM as headed; WHO hGH expressed as unity) [2]: 24
Molecule: hGH Y35pAF-40KPEG (from UniProt P01241 27-217) (ligand)

Kd [3]: 250 nM
koff [3]: 0.0083 s⁻¹
kon [3]: 33000 M⁻¹ s⁻¹
EC50 (nM), STAT5 phosphorylation in IM-9 cells [4]: > 200000 nM
B1: rat GH WT (ligand, UniProt P01244 27-216, looked up)
chain: FPAMPLSSLFANAVLRAQHLHQLAADTYKEFERAYIPEGQRYSIQNAQAAFCFSETIPAPTGKEEAQQRTDMELLRFSLLLIQSWLGPVQFLSRIFTNSLMFGTSDRVYEKLKDLEEGIQALMQELEDGSPRIGQILKQTYDKFDANMRSDDALLKNYGLLSCFKKDLHKAETYLRVMKCRRFAESSCAF
notes: also called rat growth hormone
